Our source for the stoichiometry N (mol per mol of tubulin) values is doi:10.1101/2021.01.08.425872.

The target in test [1] is taxol-stabilized microtubules (porcine brain tubulin) (porcine) (UniProt P02550). The experiment in a line: co-sedimentation.
The target is the same in test [2]. Nature of the test: co-sedimentation. The source holds these as a separate data set.

Like-named read-outs stand apart in the source and are kept apart here.

Molecule “ICR2-His6 (from UniProt Q9ZQC5 56-583) (natural protein)” registered a stoichiometry N (mol per mol of tubulin) in test [1] of 0.85.

B1: ICR1-His6 (natural protein)
chain: MPRPRVSELSQRQAPRLRSSSSTSDSNHSNRLITTDQSFKPGVDRKSPRSGGPNSDPLGQKKLGGRISDLESQLGQAQEELRLLKEQLANAEAVKKQAQDELHKKSKKPNPLARVEESATEAERIDRDEIPGDVQKETDVFEVPVEKIAVEEEELRSGNDEAEKLVAKEDEIKMLKARLYDMEKEHESLGKENESLKNQLSDSASEISNVKANEDEMVSKVSRIGEELEESRAKTAHLKEKLESMEEAKDALEAEMKKLRVQTEQWRKAADAAAAVLSGEFEMNGRDRSGSTEKYYAGGFFDPSAGFMDPPGMADDYDDGLGSGKRKSSGMKMFGELWRKKGQK
Turning to B1, the stoichiometry N (mol per mol of tubulin) in test [1] amounted to 0.4; in test [2], 0.35.
